According to patent US20130295110A1:

Legend:
[1] = molecular target: full length human PSMA (human) (UniProt Q04609); experiment: FACS, 15 ug/ml on LNCaP cells, PE goat anti-mouse IgG (control of FIG. 29 study)
[2] = molecular target: full length human PSMA (human) (UniProt Q04609); experiment: FACS, 15 ug/ml on LNCaP cells, PE goat anti-mouse IgG (control of FIG. 13 study)
[3] = molecular target: full length human PSMA (human) (UniProt Q04609); experiment: FACS, 15 ug/ml on LNCaP cells, PE goat anti-mouse IgG (control of FIG. 19 study)
[4] = molecular target: full length human PSMA (human) (UniProt Q04609); experiment: FACS, 15 ug/ml on LNCaP cells, PE goat anti-mouse IgG (control of FIG. 24 study)

Chain of full length human PSMA (human) (Q04609 whole entry): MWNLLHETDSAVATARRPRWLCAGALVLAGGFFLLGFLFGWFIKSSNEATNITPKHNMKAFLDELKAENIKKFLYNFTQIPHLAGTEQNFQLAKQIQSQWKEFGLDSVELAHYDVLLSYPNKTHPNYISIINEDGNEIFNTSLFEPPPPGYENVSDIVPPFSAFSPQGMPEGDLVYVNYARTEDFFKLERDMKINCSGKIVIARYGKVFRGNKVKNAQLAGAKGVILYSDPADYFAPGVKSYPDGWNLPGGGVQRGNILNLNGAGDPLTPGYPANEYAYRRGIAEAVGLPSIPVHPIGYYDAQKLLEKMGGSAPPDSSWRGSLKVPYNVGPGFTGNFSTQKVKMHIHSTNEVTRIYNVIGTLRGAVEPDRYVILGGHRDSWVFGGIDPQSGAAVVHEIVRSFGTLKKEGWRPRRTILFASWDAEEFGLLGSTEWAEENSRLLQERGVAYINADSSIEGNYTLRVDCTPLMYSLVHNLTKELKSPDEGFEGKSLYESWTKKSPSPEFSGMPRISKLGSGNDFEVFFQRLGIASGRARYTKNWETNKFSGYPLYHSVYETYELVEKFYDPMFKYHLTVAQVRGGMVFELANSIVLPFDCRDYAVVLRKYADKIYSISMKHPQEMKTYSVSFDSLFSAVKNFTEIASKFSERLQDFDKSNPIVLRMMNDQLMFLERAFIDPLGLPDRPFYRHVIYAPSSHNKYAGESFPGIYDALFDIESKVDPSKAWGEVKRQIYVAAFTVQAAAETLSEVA

fold change in MFI over secondary antibody alone [1]: 14.3 fold
fold-change in MFI over secondary antibody alone [2]: 45.3 fold
fold change in MFI over secondary antibody alone [3]: 45.3 fold
fold change in MFI over secondary antibody alone [4]: 45.3 fold
Substance: mouse anti-human PSMA monoclonal antibody, clone J591-A
